Where no end group is shown, it is not given here.
B1: VP16PAH2 (amino acids 251-404 of mSin3A encoding the PAH2 domain fused to the VP16 activation domain) (other)
chain: SKPSQLQAHTPASQQTPPLPPYASPRSPPVQPHTPVTISLGTAPSLQNNQPVEFNHAINYVNKIKNRFQGQPDIYKAFLEILHTYQKEQRNAKEAGGNYTPALTEQEVYAQVARLFKNQEDLLSEFGQFLPDANSSVLLSKTTAEKVDSVRNDH
notes: range 251-404; Prey of the directed two-hybrid assay in S. cerevisiae L40

Legend:
[1] = test system: GAL4 DNA binding domain-responsive reporter; assay: Transcription assay, Gal4-14D luciferase reporter in 293 cells; type: cell-based; settings: relative to the GALDBD alone level, 24 h after transfection
Method: Transcription Assays—293 cells were grown in Dulbecco's modified Eagle's medium with 10% defined calf serum (HyClone). 2×10^5 cells were planted on 60-mm dishes and transfected with 200 ng of the Gal4-14D luciferase reporter (Ayer et al., Mol. Cell Biol. 16:5772-5781 (1996)) and 1 μg of the indicated expression vector. Cells harvested 24 h after transfection and luciferase and β-galactosidase activity measured according to the manufacturers' protocols (Promega and Tropix). Each transfection was performed at least twice in triplicate. Error shown is the standard of the mean.
To test whether this minimal thirteen residue interaction domain is sufficient to target a functional mSin3:HDAC corepressor complex to DNA, we fused amino acids 8-20 from Mad1 to the DNA binding domain of the yeast transcriptional activator GAL4 (GALDBD). The transcriptional activity of GALSID(8-20) WT was tested on a reporter containing four GAL4 binding sites cloned upstream of a minimal promoter (FIG. 6A). Consistent with our previous findings (Ayer et al., Mol. Cell. Biol. 16:5772-5781 (1996)), the GALDBD alone activates this reporter approximately 3-fold, and a fusion between the first 35 amino acids of Mad1 and the GALDBD repressed this level of reporter activity approximately 7-fold. […] Amino acids 10, 14, and 17 of the SID can be mutated to alanine without adversely affecting the interaction with PAH2 (FIG. 3). However, it is possible that these residues constitute a surface that interacts with other components of the mSin3-HDAC complex and/or components of the general transcriptional machinery. To test whether mutation of these residues may impair the ability of the SID to recruit a functional corepressor complex, we constructed a minimal SID containing the mutations Q10A, E14A, and D17A in the context of a GALDBD fusion (FIG. 6A).

[2] = target: mSin3-HDAC corepressor complex; assay: cell-based or functional assay
[3] = target: T1, LexA fused to amino acids 1-57 of Mad1 (bacterial; human, UniProt P0A7C2 1-202; Q05195 1-57); assay: directed yeast two-hybrid assay (LexA-SID with VP16PAH2, beta-galactosidase)
T1 construct: also called SID 1-57
T1 sequence: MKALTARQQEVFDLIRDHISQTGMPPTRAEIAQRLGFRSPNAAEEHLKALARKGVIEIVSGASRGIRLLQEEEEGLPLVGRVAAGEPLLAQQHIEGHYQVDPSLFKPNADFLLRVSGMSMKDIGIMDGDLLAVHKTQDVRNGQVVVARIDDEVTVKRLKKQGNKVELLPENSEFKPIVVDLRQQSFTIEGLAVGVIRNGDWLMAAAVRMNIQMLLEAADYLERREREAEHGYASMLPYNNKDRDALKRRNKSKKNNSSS

[4] = target: T2, LexA fused to amino acids 8-20 of wildtype Mad1 (bacterial; human, UniProt P0A7C2 1-202); assay: as above
T2 construct: also called SID 8-20; minimal SID
T2 sequence: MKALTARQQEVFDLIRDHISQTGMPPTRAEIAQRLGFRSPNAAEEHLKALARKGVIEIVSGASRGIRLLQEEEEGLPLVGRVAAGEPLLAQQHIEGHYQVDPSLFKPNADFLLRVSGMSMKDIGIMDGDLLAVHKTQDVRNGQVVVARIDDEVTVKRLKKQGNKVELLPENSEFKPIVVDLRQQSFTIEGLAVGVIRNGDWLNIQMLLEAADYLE

[5] = target: B1; assay: as above
[6] = target: T3, GST-PAH2, a GST fusion to the PAH2 domain of mSIN3A (UniProt P08515 1-218 = GST; Q60520 300-383); assay: far Western blot, probe purified under native conditions
T3 construct: Expressed in bacteria, resolved by SDS-PAGE and immobilised on PVDF membrane
Method: Recombinant GST and GST-PAH2 were expressed in bacteria and purified on glutathione-Sepharose 4B (Amersham Pharmacia Biotech). […] The blots were blocked in far Western Buffer (PBS containing 0.1% Nonidet P-40, 1 mM EDTA, and 1 mM dithiothreitol) containing 5% nonfat dry milk for 1 h at 4° C. Purified probes were added to blots in 5 ml of far Western buffer containing 1% nonfat dry milk and incubated together at 4° C. overnight with rocking. Following washing with far Western buffer, the blots were air-dried and exposed 48 h for autoradiography.

GST = target: T4, GST (Schistosoma japonicum, UniProt P08515); assay: Far Western blot, 35S-labeled Mad1 probes on immobilized GST alone; type: binding; settings: probe purified under denaturing conditions
T4 construct: made in house; host or cells: bacteria
Method: Far Western Blotting—Mad1His and Mad1(L12P/A16P)His (Ayer et al., Cell 80:767-776 (1995)), which have a polyhistidine tag fused to their carboxyl termini, were translated in vitro in 50 μl reactions using the TNT coupled reticulocyte lysate system (Promega) and ^35[S]methionine (NEN Life Science Products) and were purified under native or denaturing conditions. Ni^2+-NTA agarose (Qiagen) was blocked with rabbit reticuocyte lysate (diluted 1:3 in PBS) for 30 min at 4° C. and then incubated with the in vitro synthesized Mad1His and Mad1(L12P/A16P)His for 30 min at 4° C. in PBS native or 6 M guanidine hydrochloride, 0.1 M NaH2PO4, and 0.01 M Tris, pH 8.0 (denaturating conditions) followed by extensive washing with the same buffers. The bound proteins were eluted in PBS containing 0.5 M imidazole and then dialyzed overnight against PBS to remove the imidazole and allow for renaturation. Recombinant GST and GST-PAH2 were expressed in bacteria and purified on glutathione-Sepharose 4B (Amersham Pharmacia Biotech). The blots were prepared by resolving 1 μg of GST-PAH2 on 15% SDS-PAGE, followed by transfer to PVDF membrane. The blots were blocked in far Western Buffer (PBS containing 0.1% Nonidet P-40, 1 mM EDTA, and 1 mM dithiothreitol) containing 5% nonfat dry milk for 1 h at 4° C. […]

[7] = target: T5, PAH2 domain of mSin3A (GST-PAH2) (Mus musculus, UniProt Q60520); assay: Far Western blot, 35S-labeled Mad1 probes on immobilized GST-PAH2; type: binding, mammalian
T5 construct: GST-PAH2, a GST fusion to the PAH2 domain of mSIN3A; made in house; host or cells: bacteria
T5 sequence (Q60520 300-383 limits assumed): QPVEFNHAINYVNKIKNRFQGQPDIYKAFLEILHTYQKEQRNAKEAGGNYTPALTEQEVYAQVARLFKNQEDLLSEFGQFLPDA
Method: Far Western Blotting—Mad1His and Mad1(L12P/A16P)His (Ayer et al., Cell 80:767-776 (1995)), which have a polyhistidine tag fused to their carboxyl termini, were translated in vitro in 50 μl reactions using the TNT coupled reticulocyte lysate system (Promega) and ^35[S]methionine (NEN Life Science Products) and were purified under native or denaturing conditions. Ni^2+-NTA agarose (Qiagen) was blocked with rabbit reticuocyte lysate (diluted 1:3 in PBS) for 30 min at 4° C. and then incubated with the in vitro synthesized Mad1His and Mad1(L12P/A16P)His for 30 min at 4° C. in PBS native or 6 M guanidine hydrochloride, 0.1 M NaH2PO4, and 0.01 M Tris, pH 8.0 (denaturating conditions) followed by extensive washing with the same buffers. The bound proteins were eluted in PBS containing 0.5 M imidazole and then dialyzed overnight against PBS to remove the imidazole and allow for renaturation. Recombinant GST and GST-PAH2 were expressed in bacteria and purified on glutathione-Sepharose 4B (Amersham Pharmacia Biotech). The blots were prepared by resolving 1 μg of GST-PAH2 on 15% SDS-PAGE, followed by transfer to PVDF membrane. The blots were blocked in far Western Buffer (PBS containing 0.1% Nonidet P-40, 1 mM EDTA, and 1 mM dithiothreitol) containing 5% nonfat dry milk for 1 h at 4° C. Purified probes were added to blots in 5 ml of far Western buffer containing 1% nonfat dry milk and incubated together at 4° C. overnight with rocking. Following washing with far Western buffer, the blots were air-dried and exposed 48 h for autoradiography.
To determine whether the interaction between Mad1 and mSin3A is direct, we used far Western blot assays. In these experiments GST-PAH2, a GST fusion to the PAH2 domain of mSIN3A, and GST alone were resolved by SDS-PAGE followed by transfer to a PVDF membrane. […] Equal efficiency of transcription and translation of these proteins was confirmed by SDS-PAGE followed by autoradiography to detect the proteins (data not shown). These protein probes were purified on Ni^2+-NTA agarose under native or denaturing conditions. […]

[8] = probe purified under denaturing conditions and renatured

T4 sequence (P08515 whole entry): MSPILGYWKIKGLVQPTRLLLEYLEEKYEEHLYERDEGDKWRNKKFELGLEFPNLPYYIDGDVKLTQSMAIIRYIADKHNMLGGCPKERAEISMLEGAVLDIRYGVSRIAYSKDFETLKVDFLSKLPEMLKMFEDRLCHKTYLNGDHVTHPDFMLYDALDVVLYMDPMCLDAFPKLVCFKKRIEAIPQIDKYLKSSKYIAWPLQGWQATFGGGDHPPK

## GALSID Q10A, E14A, D17A: minimal SID containing the mutations Q10A, E14A, and D17A in the context of a GALDBD fusion (NIAMLLAAAAYLE; also: GAL4 DNA binding domain fusion; UniProt Q05195 8-20, looked up, variant Q10A E14A D17A)
[1]
  repression of reporter activity: repressed transcription to the same extent as the wild-type minimal SID

## fusion between the first 35 amino acids of Mad1 and the GALDBD (from UniProt P04386 1-147; Q05195 1-35)
[2]
  repression of a GAL4 DNA binding domain-responsive luciferase reporter in 293 cells: 7 fold

## B1
[3]
  binding result: binds
[4]
  binding result: binds

B2: LexA fused to SID 1-27 (other)
chain: MKALTARQQEVFDLIRDHISQTGMPPTRAEIAQRLGFRSPNAAEEHLKALARKGVIEIVSGASRGIRLLQEEEEGLPLVGRVAAGEPLLAQQHIEGHYQVDPSLFKPNADFLLRVSGMSMKDIGIMDGDLLAVHKTQDVRNGQVVVARIDDEVTVKRLKKQGNKVELLPENSEFKPIVVDLRQQSFTIEGLAVGVIRNGDWLMAAAVRMNIQMLLEAADYLERREREAE
notes: Carboxyl-terminal deletion of 30 amino acids from SID 1-57
[5]
  fold better binding than SID 1-57 (relative beta-galactosidase activity): ~2 fold

B3: Mad1(L12P/A16P)His (other, human, UniProt Q05195 1-221, looked up)
chain: MAAAVRMNIQMPLEAPDYLERREREAEHGYASMLPYNNKDRDALKRRNKSKKNNSSSRSTHNEMEKNRRAHLRLCLEKLKGLVPLGPESSRHTTLSLLTKAKLHIKKLEDCDRKAVHQIDQLQREQRHLKRQLEKLGIERIRMDSIGSTVSSERSDSDREEIDVDVESTDYLTGDLDWSSSSVSDSDERGSMQSLGSDEGYSSTSIKRIKLQDSHKACLGL
modifications: 35S-methionine labelled (in vitro translated)
notes: Mutant Mad1 probe in the far Western blot; not shown: polyhistidine tag fused to the carboxyl terminus
[6]
  binding result: no binding

B4: fusion between the first 35 amino acids of Mad1 and the GALDBD: first 35 amino acids of Mad1 fused to the GAL4 DNA binding domain (protein)
chain: MKLLSSIEQACDICRLKKLKCSKEKPKCAKCLKNNWECRYSPKTKRSPLTRAHLTEVESRLERLEQLFLLIFPREDLDMILKMDSLQDIKALLTGLFVQDNVNKDAVTDRLASVETDMPLTLRQHRISATSSSEESSNKGQRQLTVSMAAAVRMNIQMLLEAADYLERREREAEHGYASMLP
[1]
  repression of reporter activity: approximately 7 fold

B5: GALSID(8-20) WT: amino acids 8-20 from Mad1 fused to the GAL4 DNA binding domain (protein)
chain: MKLLSSIEQACDICRLKKLKCSKEKPKCAKCLKNNWECRYSPKTKRSPLTRAHLTEVESRLERLEQLFLLIFPREDLDMILKMDSLQDIKALLTGLFVQDNVNKDAVTDRLASVETDMPLTLRQHRISATSSSEESSNKGQRQLTVSNIQMLLEAADYLE
[1]
  repression of reporter activity: repressed transcription to approximately the same level
[1]; listed as minimal thirteen amino acid SID
  repression of reporter activity: functions similarly to the longer 35-amino acid SID

B6: Mad1His: in vitro translated 35S-labeled Mad1 with a polyhistidine tag fused to its carboxyl terminus (protein)
chain: MAAAVRMNIQMLLEAADYLERREREAEHGYASMLPYNNKDRDALKRRNKSKKNNSSSRSTHNEMEKNRRAHLRLCLEKLKGLVPLGPESSRHTTLSLLTKAKLHIKKLEDCDRKAVHQIDQLQREQRHLKRQLEKLGIERIRMDSIGSTVSSERSDSDREEIDVDVESTDYLTGDLDWSSSSVSDSDERGSMQSLGSDEGYSSTSIKRIKLQDSHKACLGL
modifications: left off: small tags and cut ends
notes: in vitro translated 35S-labeled Mad1 with a polyhistidine tag fused to its carboxyl terminus
GST
  interaction with GST alone: not with GST alone
[7]; [8]
  interaction with GST-PAH2: also interacted with GST-PAH2
[7]; probe purified under native conditions
  interaction with GST-PAH2: able to interact

B7: Mad1(L12P/A16P)His: polyhistidine-tagged mutant Mad1 protein with L12P/A16P point mutations in the SID (protein)
chain: MAAAVRMNIQMPLEAPDYLERREREAEHGYASMLPYNNKDRDALKRRNKSKKNNSSSRSTHNEMEKNRRAHLRLCLEKLKGLVPLGPESSRHTTLSLLTKAKLHIKKLEDCDRKAVHQIDQLQREQRHLKRQLEKLGIERIRMDSIGSTVSSERSDSDREEIDVDVESTDYLTGDLDWSSSSVSDSDERGSMQSLGSDEGYSSTSIKRIKLQDSHKACLGL
modifications: left off: small tags and cut ends
notes: polyhistidine-tagged mutant Mad1 protein with L12P/A16P point mutations in the SID
GST
  interaction with GST alone: did not interact
[7]; [8]
  interaction with GST-PAH2: did not interact

Reference: patent US6528620B1, “Sid-polyamide fusions: a potent method of regulating gene expression” (University of Utah Research Foundation, priority 1999, dated 2003)
